Entries after “also recorded” stand apart in the source; their conditions may differ.
Tests used:
Tac2 [1] = test: Looming disk assay, Tac2 shRNA knockdown; format: in vivo, mouse; settings: SIS mice
From the text: (§1) Small hairpin RNA (shRNA) for the mouse Tac2 gene (NM_009312.2) were designed using the online designing tool siDirect 2.0 (http://sidirect2.mai.jp/) (Naito et al., 2009; incorporated by reference in its entirety).
(§2) 8-16 week old mice were anesthetized with isoflurane and mounted in a stereotaxic apparatus (Kopf Instruments). Anesthesia was maintained throughout surgery at 1-1.5% isoflurane. The skull was exposed and small burr holes produced dorsal to each injection site using a stereotaxic mounted drill. Virus was backfilled into pulled fine glass capillaries (˜50 μm diameter at tip) and pressure injections of 300 nl were made bilaterally into either the dBNSTa (AP +0.25, ML ±0.85, DV −4.1), DMH (AP −1.3, ML±0.35, DV −5.6), or CeA (AP −1.4, ML ±2.6, DV −4.73) at a rate of 30nl per minute using a nanoliter injector (Nanoliter 2000, World Precision Instruments) controlled by an ultra microsyringe pump (Micro4, World Precision Instruments). Capillaries remained in place for 5 minutes following injections to allow for full diffusion of virus and to reduce backflow up the injection tract. Skin above the skull was then drawn together and sealed with GLUture (Zoetis). For bilateral cannula implantations, single or double guide cannulas (custom, Plastics One) aimed 0.5 mm above each region were implanted and held in place with dental cement (Parkell). Compatible dummy cannulas with a 0.5 mm protrusion at the tip were inserted to prevent cannula clogging. Directly following surgery, mice were given a subcutaneous injection of ketoprofen (2 mg/kg) and supplied with drinking water containing 400 mg/L sulphamethoxazole and 200 mg/L ibuprofen and monitored for 7 days. Dummies were replaced every 2-3 days to keep cannula tracts clean. All injections were subsequently verified histologically.
Freezing behavior to presentation of an overhead looming disk proceeded as previously described (Kunwar et al., 2015; Yilmaz and Meister, 2013; incorporated by reference in their entirety). Briefly, mice were transported to a novel behavioral testing room. […] Behavior was recorded using a video recorder attached to a laptop equipped with video capture software (Corel VideoStudio Pro). Acute freezing behavior to the looming disk (“during”) as well as in the 30 seconds following the last disk (“post”) were scored manually (Behavior Annotator, MATLAB) by an observer blind to environmental conditions.
To further investigate a role for local Tac2 release in mediating different effects of SIS, we asked next whether Tac2 synthesis played a role in each of the three brain regions studied, via targeted shRNAi-mediated knockdown of Tac2. […] Injections were histologically verified by zsGreen fluorescence. […]

Tac2 [2] = test: Tone fear test, Tac2 shRNA knockdown; format: in vivo, mouse; settings: SIS mice
From the text: as §1, §2
The protocol for tone trace fear conditioning was performed as previously described (Cushman et al., 2014; incorporated by reference in its entirety) using fear conditioning boxes previously described in detail (Haubensak et al., 2010; Kunwar et al., 2015; incorporated by reference in their entirety). Briefly, mice were transported in squads of four on a white cart to a novel behavioral testing room containing 4 sound-attenuating fear-conditioning chambers (Med Associates). This “training context” was comprised of flat grid flooring (wired to a shock generator and scrambler for footshock delivery, Med Associates), houselights, and the presence of an internal fan for background noise. Chambers were sprayed with 70% Simple Green solution on the underlying chamber pan to generate a unique contextual scent and chambers were cleaned with 70% EtOH between squads. […]

B1: shRNA-2: small hairpin RNA for mouse Tac2 gene (SEQ ID NO: 11, 12), expressed from AAV5-H1-shRNA-CMV-zsGreen (nucleic acid)
chain 1: CCGCCTCAACCCCATAGCAATTAGCTTCCTGTCACTAATTGCTATGGGGTTGAGGCTTTTTT
chain 2: AAAAAAGCCTCAACCCCATAGCAATTAGTGACAGGAAGCTAATTGCTATGGGGTTGAGGCGG
acute (during) freezing to looming disk (Tac2 [1]; AAV shRNA in dBNSTa): additionally reduced; also recorded: significantly reduced | acute (during) freezing to conditioned tone (Tac2 [2]; AAV shRNA in dBNSTa): additionally reduced; also recorded: significantly reduced

B2: shRNA-1: small hairpin RNA for mouse Tac2 gene (SEQ ID NO: 9, 10), expressed from AAV5-H1-shRNA-CMV-zsGreen (nucleic acid)
chain 1: CCGACGTGGTTGAAGAGAACACCGCTTCCTGTCACGGTGTTCTCTTCAACCACGTCTTTTTT
chain 2: AAAAAAGACGTGGTTGAAGAGAACACCGTGACAGGAAGCGGTGTTCTCTTCAACCACGTCGG
freezing to looming disk (acute, during stimulus) (Tac2 [1]; AAV shRNA in CeA): blocked | acute (during) freezing to looming disk (Tac2 [1]; AAV shRNA in dBNSTa): had no effect | persistent (post) freezing to looming disk (Tac2 [1]; AAV shRNA in dBNSTa): blocked; also recorded: strongly reduced | freezing to conditioned tone (Tac2 [2]; AAV shRNA in CeA): blocked | acute (during) freezing to conditioned tone (Tac2 [2]; AAV shRNA in dBNSTa): had no effect | persistent (post) freezing to conditioned tone (Tac2 [2]; AAV shRNA in dBNSTa): blocked; also recorded: strongly reduced

From patent US12083109B2, “Neurokinin antagonists and uses thereof” (California Institute of Technology, priority 2017, dated 2024)
